Assay: soluble on expression in E. coli; label from the status in PepcDB or PDB records

Sequence | soluble on expression in E. coli
MAHHHHHHMTIRVAINGYGRIGRNTLRAFYENGKKHDLEIVAINDLGDAKTNAHLTQYDTAHGKFPGEVSVDGDYLVVNGDRIRVLANRNPAELPWGELGVDVVMECTGFFTSKEKASAHLKGGAKKVIISAPGGKDVDATIVYGVNHDVLKAEHTVISNASCTTNCLAPLVKPLNDKIGLETGLMTTIHAYTNDQVLTDVYHEDLRRARSATHSQIPTKTGAAAAVGLVLPELNGKLDGYAIRVPTINVSIVDLSFIAKRDTTAAEVNAIMKEASEGALKGILGYNEAPLVSIDFNHNPASSTFDATLTKVSGRLVKVSSWYDNEWGFSNRMLDTAIALANAK | soluble
MGSDKIHHHHHHMFAMAGFPDKIKTIKKGLDVPIAGEPRQEIDCCARPAKVALLGEEYVGLKPTLLVEVGDRVKKGQTLFEDKKAPGIGFTAPASGVVVEINRGERRVLQSVVIQVEGDEQVTFKAYSDLSRLSREAVQQNLAESGLWTALRTRPFSRVPLLDSEPAAIFVNAMDTNPLAADPRVIIAEQREAFAAGLEVLTYLTSGKIHLCHDAGEALPGADLARVESHRFAGVHPAGLVGTHIHFIAPASLERPVWHLGYQDVIAYGKLFLTGELYTDRVVALGGPTALNPRLLRTQLGAQLSTLVEGEIKPGSNRVVSGSVLAGHTAFGVHDYLGRFHQQISVLAEDAKHQLLPWVRGGADKFSITRAVTSRFKATKRLFDLTTHAGGSHRAMMAFGQLDRVMPLDILPTLLVRDLVVRDTDEAQALGALELDEEDLALCTFVCPGKYDFGRELRICLDIIEREG | not soluble
MGSDKIHHHHHHKAPLDEIADDSFWSDETLVKYYVNDLYSEISVDGLQLQENRSDNSVSAQRDKYRASWFKFNYDMVSASDPQDDDVWEDYYVKVRKCNRFFERIGTSTIEESEKSRLTGEVHFLRAMFYFEMVKRYGGVILLDKVLTMEDNWEIPRSSEKECYDFILEDLKKATEMLPASYGSREKGRATKGAAYALKSRVELYDKRYEDVIKSCAEVYKLGYELVDGTTPEKYRSIWWTTNKDNKEIIFDVQYKSPDVYNNMMVCNMVTYINDKYGDRGWGGLGPTQELIDAFEMADGTPATQYSQAPADQVFDINTCGIYEGREPRFYANIVFHGSQIFFNADKGAVTVDRYLMDTPDKGDGSLTGYNVWKWIDYDNYNYPYAGAGSPDFSTNWIILRYAEIYLNDAEARLETGDVEGARKAVNMIRQRVGLPDLTESDPEKLRELIRKERRIEFAFEEQRFYDVRRWKIGPETQTTLHGVRFVSPTEFKVTKTDIRTWNDRLYLTPVPHDEIVRSSVLKQNLGY | not soluble
MSSRLDQLVNKYNKSCENVSFAEHMILKDKYESLVIEHESLIKTLELLEKTHGFTVEDLVTKQKEALEKKEVIEKWENKFGEMEKKLKTVERSIEYIMSVDVQTGVDSGSANRPNVKNSYQRGIF | not soluble
MQGTKIRLMVGGLLLAAASNNVQAEALQPDPAWQQGKLDNGFSWQLLATPQRPSDRIELRLIVNTGSLSENTQEVGFAHLLPRLALMSSASFTPAQLQSLWQQGIDNERPLPPAITSYDFTLYSLSLPNNRPDLLKDALAWLSDTAGNLAVSEQTVNAALNTATDPIATFPQNIQEPWWRYRLKGSSLIGHDPGQPVTQPVDVEKLKQFYQQWYTPDAMTLYVVGNVDSRSIAAQISKAFSELKGKRTAPAAVATLAPLPPEPVSLMNEQAAQDTLSLMWDTPWHPIQDSMALSRYWRSDLAREALFWHIKQVLEKNNQKNLKLGFDCRVQYQRAQCAIHLNTPVENLTANMTFVARELAALRANGLSQAEFDALMTQKNDQLSKLFATYARTDTDILMSQRLRSQQSGVVDIAPEQYQKLRQAFLSGLTLAELNRELKQQLSQDTTLVLMQPKGEPEVNVKALQEIYNGIMAPQTVAEEEVAPAEAVETAPVMPTTAQ | not soluble
MKKVITYGTFDLLHWGHIKLLERAKQLGDYLVVAISTDEFNLQKQKKAYHSYEHRKLILETIRYVDEVIPEKNWEQKKQDIIDHNIDVFVMGDDWEGKFDFLKDQCEVVYLPRTEGISTTKIKEEIAGL | soluble
MRVKGPSSRRKKKKILKLAKGYRGQRSRSYRRAKEAVMRALYYQYRDRKLRKREFRRLWIARINAAVRAYGLNYSTFINGLKKAGIELDRKILADMAVRDPQAFEQVVNKVKEALQVQ | soluble
MQAYRGTGKTSQLISQKKPISILILGVDQGIEGRHDRGNSDTMILATMNPEKKEATMTSIPRDLLADIKGDGRGEGKYYMFRANSAYQVGGSKGATRTVKALLNTPVNYYMEVNMKALESMVEALGGVDVNVPFTFTYHTHFRKGKQHLNGKEALDYVRMRKEDPKGDYGRQMRQRQVINDIVRKGMSVNSITNYRKILKVFAKYVKTNLTFDDMLSIAMNYRGCTQNIKSGYIQGHNVWIGAAAMQVASTKELQRVSDLVRSSLGLKQEKLEHHHHHH | soluble
MMQISSNGITRLKREEGERLKAYSDSRGIPTIGVGHTGKVDGNSVASGMTITAEKSSELLKEDLQWVEDAISSLVRVPLNQNQYDAMCSLIFNIGKSAFAGSTVLRQLNLKNYQAAADAFLLWKKAGKDPDILLPRRRRERALFLS | soluble
MAGGARDDLAEKMAGEVALSDDPGATLRKWRTDFDVAQTELADELDVSPSVVSDYESGRRDNPGIGVVRRLVVALLDIDENRGGDHIRQHARVLSAGFDSDVVHDLREYSANVGVERVYDAIDAEELFRGSQDTVAGHTVINSIAAITRLSSDEFYQLYGQSTNRALVFTNVTRGESPLVALRVVSPTPNAVILHGLEDEAVWEHAQDLARIDDFSLAITDIELEDLLGGLRELP | not soluble
MSLEKSSRINGGKMNREEVKDSVLLGDSLEIMRRIDDCIYDLIFLDPPYYLQMTPKRLKRWNNRSVPQTVREYWDAFPSFEAYDSFISSVLKEAKRLMSDTSTIWAIGTYHNIFRIGKIMQDMGFWILNDVVWIKTNPMPNWLGVRFTNSTETLIWATKGKEQKNYTYNRNLAKEFGLGKTANNVWVMKTSRGNERVRDENRKSVHPAQKPLELMKRIILSSTKEGDLILDPFAGVGTTGVAASMLGRNFTLIEKDPVYYRAMLSRFSRFGIRYTEKIEGHHHHHH | not soluble
MSVNMDELRHQVMINQFVLAAGCAADQAKQLLQAAHWQFETALSTFFQETNIPNSHHHH | soluble
MDTLGLVESRSIAAGVNLADGMVKVAQVELVRAGTICSGRYFICLGGDRQAVQTAVSHAEQSGSALAGSYVISGVSPQVLAVLKKSVQPGTPGALGVVECRTVSAGIAAADAAVKRSGISLLRLVTGQGINGKSYFVFSGDVASVQEAADAAKTALGRHLIESVVIARPDASVVRALTSGVR | not soluble
MSKENIVTRENTAVSENAVSEPTVNNDVGASATNSVTHPAFTLNVRPDNIGIITIDVVGDKVNTLKAEFADQIATILQQAHALPKLQGLVIVSGKPDSFIAGADITMIAACRTAHDARVLAQKGQSILAQIAAFPVPVVAAIHGACLGGGLELALACHSRICSLDDKTVLGLPEVQLGLLPGSGGTQRLPRLVGVSKALDMILTGKQIRPRQALKMGLVDDVVPRDILLDVAIQRAKAGWLNRRALPWQERLLSGPLGKALLFRIVRKKTLAKTRGHYPAAERIIDVVRKGLDQGGPSGYEAEARAFGELAMSPQSAALRSLFFATTSLKKETGSAATARAIHRVGVLGGGLMGGGIANVTATRAGLPVRIKDINPQGINQALKYTWDALGKRVRSKRMRPTEQQRQMMLISGSTDYRGFERVDIVVEAVFEDLSLKQQMVADIERFGAAHTIFASNTSSLPISQIAALAQRPEQVIGLHYFSPVDKMPLVEVIPHEKTSEETIATTVALARKQGKTAIVVADRAGFYVNRILAPYINEAARCLLDGEPIESVDNALVDFGFPVGPMMLLDEVGIDVATKIMPILVEQLGPRFAAPPSFDVILKDGRKGRKNGRGFYLYSNPTKNSSPTKNGNSPAKRNSFKWRKNKVKPVDASIYTLLGVTPKAHLGAGVITQRCTMLMLNEAVRCLDESIIRNPRDGDIGAVFGIGFPPFLGGPFRYLDSLGADKVVQALRLLVQQYGERFEPCQRLVTMAEQQQQFYPVDANIDEVTDVAS | not soluble

From the DeepSol protein solubility set
